We go through 3 molecules from patent publication US20150023971A1 (H LUNDBECK A S, published 2015).

First the molecules themselves.
T1: purified human Sortilin extracellular domain (produced in stably transfected CHO cells) (human, UniProt Q99523 78-755)
T1 construct: also called immobilized Sortilin
T1 sequence: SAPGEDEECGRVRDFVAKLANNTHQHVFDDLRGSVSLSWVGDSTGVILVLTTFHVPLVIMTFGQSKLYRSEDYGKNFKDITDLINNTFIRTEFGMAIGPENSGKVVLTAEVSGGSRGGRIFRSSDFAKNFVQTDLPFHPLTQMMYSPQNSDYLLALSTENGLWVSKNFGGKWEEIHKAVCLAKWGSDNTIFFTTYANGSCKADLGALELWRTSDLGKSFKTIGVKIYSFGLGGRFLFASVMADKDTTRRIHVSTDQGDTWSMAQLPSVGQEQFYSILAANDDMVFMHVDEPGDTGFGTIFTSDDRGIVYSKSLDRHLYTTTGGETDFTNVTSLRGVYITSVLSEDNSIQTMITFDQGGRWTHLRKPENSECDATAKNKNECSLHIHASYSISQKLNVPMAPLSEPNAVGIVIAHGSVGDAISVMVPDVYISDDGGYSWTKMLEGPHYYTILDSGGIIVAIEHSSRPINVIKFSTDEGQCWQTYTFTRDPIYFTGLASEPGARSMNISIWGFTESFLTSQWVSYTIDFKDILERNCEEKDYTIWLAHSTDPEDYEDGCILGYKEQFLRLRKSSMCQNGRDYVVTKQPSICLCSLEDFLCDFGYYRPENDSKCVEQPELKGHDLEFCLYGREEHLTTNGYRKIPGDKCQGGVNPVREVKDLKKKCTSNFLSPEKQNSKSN

B1: recombinant human p75 neurotrophin receptor/Fc chimera (R&D systems) (Fc fusion, UniProt P08138 29-250, looked up)
chain: KEACPTGLYTHSGECCKACNLGEGVAQPCGANQTVCEPCLDSVTFSDVVSATEPCKPCTECVGLQSMSAPCVEADDAVCRCAYGYYQDETTGRCEACRVCEAGSGLVFSCQDKQNTVCEECPDGTYSDEANHVDPCLPCTVCEDTERQLRECTRWADAECEEIPGRWITRSTPPEGSDSTAPSTQEPEAPPEQDLIASTVAGVVTTVMGSSQPVVTRGTTDN
notes: Bought from R&D systems; also called p75-IgG-Fc chimeric protein; p75^NTR; not shown: IgG Fc part of the bought chimera
B2: Mature recombinant human BDNF (Promega #G1491) (ligand)
chain: HSDPARRGELSVCDSISEWVTAADKKTAVDMSGGTVTVLEKVPVSKGQLKQYFYETKCNPMGYTKEGCRGIDKRHWNSQCRTTQSYVRALTMDSKKRIGWRFIRIDTSCVCTLTIKRGR
notes: Bought protein; also called mature BDNF
B3: Mature murine NGF (Austral Biologicals) (ligand, mouse, UniProt P01139 122-241, looked up)
chain: SSTHPVFHMGEFSVCDSVSVWVGDKTTATDIKGKEVTVLAEVNINNSVFRQYFFETKCRASNPVESGCRGIDSKHWNSYCTTTHTFVKALTTDEKQAAWRFIRIDTACVCVLSRKATRRG
notes: mature; Bought protein

Experiment [1] addresses T2, Human recombinant proNGF (produced and purified in E. coli) (human, UniProt P01138 19-241).
T2 construct: Made as in Rattenholl et al 2001
The experiment in a line: SPR (Biacore), 25-500 nM proNGF over immobilised p75-IgG-Fc.

The target in experiment [2] is T1, purified human Sortilin extracellular …. Kind of experiment: SPR (Biacore), immobilised Sortilin extracellular domain; other preparations of mature BDNF. (SPR reads the build-up and loss of mass on a sensor chip optically.)
Experiment [3] has the same target. Kind of experiment: SPR (Biacore), immobilised Sortilin extracellular domain (94 fmol/mm2); mature BDNF from Promega (#G1491), lower panel of FIG. 7.
For experiment [4], the target named is B1. The experiment in a line: SPR (Biacore), 50-500 nM NGF over immobilised p75-IgG-Fc.
Experiment [5] has as its target T3, recombinant human TrkA/Fc chimera (R&D systems) (human, UniProt P04629-2 33-407).
T3 construct: Bought from R&D systems; also called TrkA-IgG-Fc; not shown: IgG Fc part of the bought chimera
The experiment in a line: SPR (Biacore), 50-500 nM NGF over immobilised TrkA-IgG-Fc.

Experiment [6] deals with T1, purified human Sortilin extracellular …. The experiment in a line: SPR (Biacore), 50-500 nM NGF over immobilised Sortilin extracellular domain.
For experiment [7] the target is unchanged. The experiment in a line: SPR (Biacore), NGF at 200 and 500 nM over immobilised Sortilin extracellular domain; the text gives ~8 nM for this pair.

T2 sequence (P01138 other isoform, or with tags, fused parts or gaps limits assumed): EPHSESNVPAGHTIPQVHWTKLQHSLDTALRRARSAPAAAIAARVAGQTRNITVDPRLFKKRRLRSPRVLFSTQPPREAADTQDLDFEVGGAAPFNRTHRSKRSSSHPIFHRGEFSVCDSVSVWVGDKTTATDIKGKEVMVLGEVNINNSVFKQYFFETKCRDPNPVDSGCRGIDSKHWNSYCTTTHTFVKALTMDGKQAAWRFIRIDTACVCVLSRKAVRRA
T3 sequence (P04629 other isoform, or with tags, fused parts or gaps mutant): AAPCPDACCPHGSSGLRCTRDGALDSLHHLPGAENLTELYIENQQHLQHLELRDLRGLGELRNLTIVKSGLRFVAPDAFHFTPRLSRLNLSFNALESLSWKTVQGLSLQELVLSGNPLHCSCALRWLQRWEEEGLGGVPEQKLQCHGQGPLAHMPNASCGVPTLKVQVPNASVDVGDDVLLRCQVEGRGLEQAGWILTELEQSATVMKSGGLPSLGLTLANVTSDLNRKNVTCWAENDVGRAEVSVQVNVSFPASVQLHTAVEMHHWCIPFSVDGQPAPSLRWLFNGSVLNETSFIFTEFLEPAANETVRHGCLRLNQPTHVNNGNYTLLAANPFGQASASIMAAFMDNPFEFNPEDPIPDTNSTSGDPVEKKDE

With B1, the dissociation constant (Kd) in experiment [1] was approximately 12 nM.

With B2, the Kd in experiment [2] was 10 nM; in experiment [3], approximately 40 nM.

B3: the dissociation constant (Kd) in experiment [4] is approximately 1 nM; in experiment [5] it was approximately 2 nM; in experiment [6], approximately 8 nM; in experiment [7] it was approximately 87 nM.

What is called Kd is the constant that tells how readily two partners part at equilibrium.
